B1: TMEM106C (parent)
chain: FTGRDSITCLTCQGTGYIPTEQVN

Variants of: B1
Assay: protein stability index of a GFP-peptide fusion (GPS, HEK-293T) (PSI 1-6); higher = more stable
Conditions: c terminus: a fixed tail appended
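Also: lentivirally expressed fusions sorted by FACS into six bins by GFP to DsRed ratio, PSI derived from sequencing read proportions per bin multiplied by bin number.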

Row | Variant | protein stability index
1 | FTGRDSITCLTCQGTGYIPTEVVN | 2.16
2 | FTGRDSITCLTCQGTGYIPTEWVN | 1.88
3 | FTGRDSITCLTCQGTGYIPTESVN | 1.79
4 | FTGRDSITCLTCQGTGYIPTEEVN | 1.73
5 | FTGRDSITCLTCQGTGYIPTEPVN | 1.73
6 | FTGRDSITCLTCQGTGYIPTEHVN | 1.47
7 | FTGRDSITCLTCQGTGYIPTERVN | 2.13
8 | FTGRDSITCLTCQGTGYIPTEDVN | 1.86
9 | FTGRDSITCLTCQGTGYIPTEFVN | 1.85
10 | FTGRDSITCLTCQGTGYIPTECVN | 2
11 | FTGRDSITCLTCQGTGYIPTELVN | 2.52
12 | FTGRDSITCLTCQGTGYIPTENVN | 2.26
13 | FTGRDSITCLTCQGTGYIPTETVN | 2.2
14 | FTGRDSITCLTCQGTGYIPTEMVN | 2.42
15 | FTGRDSITCLTCQGTGYIPTEKVN | 1.85
16 | FTGRDSITCLTCQGTGYIPTEAVN | 2.07
17 | FTGRDSITCLTCQGTGYIPTEYVN | 1.9
18 | FTGRDSITCLTCQGTGYIPTEGVN | 2.84
19 | FTGRDSITCLTCQGTGYIPTEIVN | 1.95
20 | FTGRDSITCLTCQGTGYYPTEQVN | 1.68
21 | FTGRDSITCLTCQGTGYWPTEQVN | 1.86
22 | FTGRDSITCLTCQGTGYTPTEQVN | 3.01
23 | FTGRDSITCLTCQGTGYVPTEQVN | 1.64
24 | FTGRDSITCLTCQGTGYIPKEQVN | 1.92

Row | Variant | protein stability index
25 | FTGRDSITCLTCQGTGYIPREQVN | 2.27
26 | FTGRDSITCLTCQGTGYIPIEQVN | 1.99
27 | FTGRDSITCLTCQGTGYIPVEQVN | 2.23
28 | FTGRDSITCLTCQGTGYIPHEQVN | 1.92
29 | FTGRDSITCLTCQGTGYIPWEQVN | 1.71
30 | FTGRDSITCLTCQGTGYIPLEQVN | 2.19
31 | FTGRDSITCLTCQGTGYIPDEQVN | 2.56
32 | FTGRDSITCLTCQGTGYIPYEQVN | 2.17
33 | FTGRDSITCLTCQGTGYIPGEQVN | 1.45
34 | FTGRDSITCLTCQGTGYIPMEQVN | 1.93
35 | FTGRDSITCLTCQGTGYIPSEQVN | 2.07
36 | FTGRDSITCLTCQGTGYIPNEQVN | 1.8
37 | FTGRDSITCLTCQGTGYIPAEQVN | 2.11
38 | FTGRDSITCLTCQGTGYIPEEQVN | 1.66
39 | FTGRDSITCLTCQGTGYIPQEQVN | 2.65
40 | FTGRDSITCLTCQGTGYIPPEQVN | 1.74
41 | FTGRDSITCLTCQGTGYIPFEQVN | 1.89
42 | FTGRDSITCLTCQGTGYIPCEQVN | 1.83
43 | FTGRDSITCLTCQGTGYIPTEQVE | 2.47
44 | FTGRDSITCLTCQGTGYIPTEQVA | 1.89
45 | FTGRDSITCLTCQGTGYIPTEQVC | 2.25
46 | FTGRDSITCLTCQGTGYIPTEQVL | 1.91
47 | FTGRDSITCLTCQGTGYIPTEQVF | 1.92
48 | FTGRDSITCLTCQGTGYIPTEQVP | 1.76

Row | Variant | protein stability index
49 | FTGRDSITCLTCQGTGYIPTEQVH | 2.07
50 | FTGRDSITCLTCQGTGYIPTEQVI | 1.44
51 | FTGRDSITCLTCQGTGYIPTEQVM | 1.84
52 | FTGRDSITCLTCQGTGYIPTEQVQ | 1.96
53 | FTGRDSITCLTCQGTGYIPTEQVD | 2.21
54 | FTGRDSITCLTCQGTGYIPTEQVY | 2.11
55 | FTGRDSITCLTCQGTGYIPTEQVK | 2.33
56 | FTGRDSITCLTCQGTGYIPTEQVR | 2.37
57 | FTGRDSITCLTCQGTGYIPTEQVT | 2
58 | FTGRDSITCLTCQGTGYIPTEQVV | 2.24
59 | FTGRDSITCLTCQGTGYIPTEQVS | 2.27
60 | FTGRDSITCLTCQGTGYIPTEQVW | 3.36
61 | FTGRDSITCLTCQGTGYIPTEQVG | 2.29
62 | FTGRDSITCLTCQGTGYIPTEQFN | 1.73
63 | FTGRDSITCLTCQGTGYIPTEQMN | 1.88
64 | FTGRDSITCLTCQGTGYIPTEQLN | 1.7
65 | FTGRDSITCLTCQGTGYIPTEQDN | 1.54
66 | FTGRDSITCLTCQGTGYIPTEQRN | 2.13
67 | FTGRDSITCLTCQGTGYIPTEQKN | 2.3
68 | FTGRDSITCLTCQGTGYIPTEQTN | 2.09
69 | FTGRDSITCLTCQGTGYIPTEQSN | 1.51
70 | FTGRDSITCLTCQGTGYIPTEQEN | 1.79
71 | FTGRDSITCLTCQGTGYIPTEQQN | 1.72
72 | FTGRDSITCLTCQGTGYIPTEQGN | 1.75

Row | Variant | protein stability index
73 | FTGRDSITCLTCQGTGYIPTEQPN | 1.89
74 | FTGRDSITCLTCQGTGYIPTEQIN | 1.47
75 | FTGRDSITCLTCQGTGYIPTEQCN | 2.25
76 | FTGRDSITCLTCQGTGYIPTEQNN | 2.12
77 | FTGRDSITCLTCQGTGYIPTEQYN | 1.79
78 | FTGRDSITCLTCQGTGYIPTEQHN | 2.11
79 | FTGRDSITCLTCQGTGYIPTEQAN | 2.21
80 | FTGRDSITCLTCQGTGYIPTEQWN | 1.87
81 | FTGRDSITCLTCQGTGYIGTEQVN | 1.63
82 | FTGRDSITCLTCQGTGYINTEQVN | 1.96
83 | FTGRDSITCLTCQGTGYIYTEQVN | 1.78
84 | FTGRDSITCLTCQGTGYIWTEQVN | 2.29
85 | FTGRDSITCLTCQGTGYIDTEQVN | 1.76
86 | FTGRDSITCLTCQGTGYIKTEQVN | 2
87 | FTGRDSITCLTCQGTGYIQTEQVN | 2.05
88 | FTGRDSITCLTCQGTGYILTEQVN | 2.29
89 | FTGRDSITCLTCQGTGYIVTEQVN | 2.67
90 | FTGRDSITCLTCQGTGYIATEQVN | 2.04
91 | FTGRDSITCLTCQGTGYITTEQVN | 2.21
92 | FTGRDSITCLTCQGTGYIRTEQVN | 1.26
93 | FTGRDSITCLTCQGTGYIITEQVN | 1.84
94 | FTGRDSITCLTCQGTGYIHTEQVN | 2.35
